Molecular target: Tag1-LAG3 protein (UniProt P18627)
Assay: HTRF blocking assay (Cisbio kit): Tag1-LAG3 with Tag2-FGL1 and antibody

Sequence of Tag1-LAG3 protein (P18627 23-450): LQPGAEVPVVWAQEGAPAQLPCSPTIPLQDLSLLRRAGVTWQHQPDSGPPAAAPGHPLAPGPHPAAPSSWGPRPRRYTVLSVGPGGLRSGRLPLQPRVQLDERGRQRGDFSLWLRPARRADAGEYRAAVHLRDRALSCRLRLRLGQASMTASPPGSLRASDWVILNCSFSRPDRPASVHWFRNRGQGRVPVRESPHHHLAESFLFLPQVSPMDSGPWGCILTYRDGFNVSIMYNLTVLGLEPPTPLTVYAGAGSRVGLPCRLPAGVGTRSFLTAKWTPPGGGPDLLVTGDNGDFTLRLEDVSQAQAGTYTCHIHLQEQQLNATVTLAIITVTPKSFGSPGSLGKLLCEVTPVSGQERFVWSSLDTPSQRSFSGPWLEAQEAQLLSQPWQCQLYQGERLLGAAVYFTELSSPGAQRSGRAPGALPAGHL

IC50 (read off the curve): 2 mg/L
Substance: Positive control (ab40465) (antibody)
